Reference: article PMC6174002

T1: RpoN (sigma54) (Leptospira biflexa strain Patoc 1 …, UniProt B0SR56 1-473)
T1 sequence: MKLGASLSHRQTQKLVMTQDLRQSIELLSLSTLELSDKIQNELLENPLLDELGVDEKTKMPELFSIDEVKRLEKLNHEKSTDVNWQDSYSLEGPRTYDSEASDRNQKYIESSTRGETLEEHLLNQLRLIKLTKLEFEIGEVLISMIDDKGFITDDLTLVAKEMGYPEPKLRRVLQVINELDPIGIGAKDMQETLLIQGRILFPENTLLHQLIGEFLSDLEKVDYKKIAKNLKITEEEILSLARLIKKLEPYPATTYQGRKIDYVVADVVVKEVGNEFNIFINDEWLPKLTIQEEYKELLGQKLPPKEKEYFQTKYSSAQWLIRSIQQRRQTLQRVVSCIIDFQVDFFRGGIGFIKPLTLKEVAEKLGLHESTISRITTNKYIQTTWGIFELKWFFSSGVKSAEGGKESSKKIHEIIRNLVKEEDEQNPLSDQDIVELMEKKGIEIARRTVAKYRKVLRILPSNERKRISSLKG

B1: rcfA promoter -24/-12 probe (dsDNA)
DNA 1: TAAGCCCAATATGCTTTTGGCACGATAGTTGCATCTATTCTACTG
DNA 2: TTCAGTAGAATAGATGCAACTATCGTGCCAAAAGCATATTGGGCTT
B2: rcfA promoter cold competitor (dsDNA)
DNA 1: B1 DNA 1
DNA 2: B1 DNA 2

Legend:
RpoN (sigma54) [1] = target: T1, RpoN (sigma54); assay: EMSA
RpoN (sigma54) [2] = target: T1, RpoN (sigma54); assay: competition

Binder | binding result (RpoN (sigma54) [1]) | binding result (RpoN (sigma54) [2])
B1 | binds | –
B2 | – | binds
